# Residue numbers refer to the chain shown, from its start. In names and notes the source's numbering stands. Several values for one entry are separate records, joined by “and”; a condition that tells them apart may be missing. Equal entries are not always repeated.
# B1: I777K, L900S: TP-DNAP1 variant, encoded by SEQ ID NO:7 (protein, listed as Kluyveromyces lactis)
# chain: MDYKDKALNDLRNVYADFDSLPLDFRQILIKDRATLLQKEDVEKKILERQEDAKKYAEYLKQSEIPERISLPNIKRHKGVSISFEETSEDMVLEPRPFIFDGLNIRCFRRETIFSLKNKILNMVKESSSFKNVSRQSVSFMYFKIFNKGKVIASTKSVNIYEDKIDERLEDLCNNFDDVLKKIIDVTYGYESLFVSETYSYVIFYAKSIYFPQPRCVNNWGNNIPNILTFDSFKLFTANKNNVSCIKQCSRFLWQKDFNTLEEMIEYKNGNICIVTPQLHINDVRDIKSFNDIRLYSESPIKTFSVIDNTITYLFYFKEHLGVIFNITKSRHDRRVTKFSPLSKFSDVKNITVCFDIESYFDPEKESNQVNIPFICCASIIYNKVIGNIVDFEGRDCVAQMIEYVVDICGELNISSVELIAHNGGGYDFHYILSSMYNPAAIKNILIRNNSFISFNFAHDGVKFSVKDSYSFLLCSLANASKAFLNEETFKKTDFPHHDLKTADDLYKVYKEWSSVNTEINHVVEKEKLLITSEHIVNFTKNDKSKTLIEWSKDYCRNDVLVLSKVWLEFKNAVEDIFNCELVDQTMTLAGLSYKLFQANMPFDVELRHPNKEDYFNMREALIGGRCISVNGIYKDVLCLDVKSLYPASMAFYDQPYGSFKRVSSRPKDELGIYYVRVTPNRNNKSNFFPIRSHNKITYNNFEESTYIAWYTNVDIDIGLSEGHNIEYIPFDSYGNIGYSWSKKGKIFEKYIKDVLYKLKIKYEKQNNKVKRNVIKKIMNSLWGKFAQKWVNFEYFIKSEDDIDFESEEAYKIWDTDFMLIKKIKESTYSSKPIQNGVFTLSWARYHMKSIWDAGAKEGAECIYSDTDSIFVHKEHFKKNAKFMLNGLKVPIIGSEVGQSELECEFDKLLCAGKKQYMGFYTYFQDGKPCIKEKKRFKGIPSNYIIPELYAHLLSGADKEAKIQFLKFRREWGSVKGYIENKTVKAT
# B2: L474W, L640Y, I777K, W814N: TP-DNAP1 variant, encoded by SEQ ID NO:9 (protein, listed as Kluyveromyces lactis)
# chain: B1 chain with L474W, L640Y, W814N, S900L
# B3: I777K: TP-DNAP1 variant, encoded by SEQ ID NO:3 (protein)
# chain: B1 chain with S900L
# Assays:
# [1] = Maximum soluble concentration in media; type: physicochemical; details: yeast culture media, aqueous buffer
# [2] = system: p1-encoded leu2 (Q180*); experiment: qPCR measurement of p1-encoded leu2 (Q180*) copy number; type: cell-based, S. cerevisiae; details: qPCR-determined p1 copy number, OR-Y24 strains
# Protocol: A calibration curve was established to correlate p1 copy number, determined via quantitative PCR (qPCR), with fluorescence of p1-encoded mKate2 (Table 1). Five TP-DNAP1 variants representing a wide range of copy numbers were transformed into ORY24 and passaged until w.t. p1 was displaced. The five OR-Y24 strains were grown to saturation, diluted 1:10,000 to mimic p1 fluctuation tests, and grown in triplicate 100 μL cultures and duplicate 40 mL cultures. 100 μL saturated cultures were subject to fluorescence measurement of mKate2 (ex/em=561 nm/620 nm, bandwidth=15 nm) on a flow cytometer (Invitrogen Attune NxT). Whole-cell DNA extracts were prepared from 40 mL cultures and used as templates for qPCR measurement of p1-encoded leu2 (Q180*), as described previously (Ravikumar et al., 2014). p1-encoded LEU2 was PCR amplified with qPCR-Leu2F and qPCR Leu2R; and genomic LEU3 was PCR amplified with qPCR-Leu3F and qPCR-Leu3R using SyBR Green (Fisher Scientific) master mix.
# [3] = system: p2-encoded leu2*; experiment: p2 leu2* fluctuation tests in GA-Y021 (p2 mutation rate reporter strain); type: cell-based, S. cerevisiae; details: GA-Y021, noncognate polymerase in trans, mutual orthogonality experiment
# In short: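 Yeast GA-Y021 carrying wt TP-DNAP2 plus variants in trans; replicate cultures grown 48 h at 30° C in pH 5.8 SC dropout, spot-plated on leucine-free medium, colonies counted after 5 days. m by p0 method (six replicates) or Ma-Sandri-Sarkar MLE (36–48 replicates), normalized to titer, p2 copy number (mKate2) and 2.33 bp target.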
# [4] = system: p1-encoded leu2*; experiment: p1 leu2* fluctuation tests in AR-Y304 (p1 mutation rate reporter strain, mutual orthogonality); type: cell-based, S. cerevisiae; details: AR-Y304, polymerase in trans
# From the text: Strains for testing mutual orthogonality were generated by transforming a panel of CEN6/ARS4 vectors encoding TP-DNAP1 or TP-DNAP2 variants into two base strains, AR-Y304 and GA-Y021. AR-Y304 (Ravikumar et al., 2014, Nature Chemical Biology, 10:175-177) contains recombinant p1 encoding mKate2, URA3 and leu2* without disturbing the native TP-DNAP1 ORF. Similarly, GA-Y021 encodes recombinant p2 that replaces ORF1 with mKate2, URA3 and leu2* without disturbing the native TP-DNAP2 ORF.
# To precisely measure p1 and p2 per-base substitution mutation rates, several modifications were made to the small-scale protocol. First, 36 replicates were performed for reconfirmation of candidate TP-DNAP2 mutators, and 48 replicates for genomic and mutual orthogonality experiments. Titers were also determined for each strain after spot plating by pooling the residual volume from 4 replicates and plating dilutions on YPD. The expected number of LEU2 functional mutants (m) was determined by the Ma-Sandri-Sarkar maximum likelihood estimator (as calculated by the FALCOR tool and corrected for partial plating (Foster, 2006, Methods Enzymol, 409:195-213; Sarkar et al., 1992, Genetica, 85:173-179; Hall et al., 2009, Bioinformatics, 25:1564-1565). The mean mKate2 fluorescence was determined from 50,000 event counts on Attune™ NxT Flow Cytometer and converted to p2 copy number by using a calibration curve. To determine per-base substitution rates, the corrected m was normalized to the average cell titer, the p2 copy number, and the target size for functional leu2* reversion (2.33 bp). 95% confidence intervals were similarly scaled.
# To test whether the replication mechanisms of p1 and p2 are mutually orthogonal in vivo, p1 and p2 mutation rates were measured in the presence of a panel of TP-DNAP1 and TP-DNAP2 variants with varying mutation rates. Changes in p1 or p2 mutation rate induced by TP-DNAP variants would therefore signal a degree of cross-replication between TP-DNAP1/p1 and TP-DNAP2/p2, if any. A panel of six polymerases was introduced on CEN6/ARS4 vectors into two separate base strains, AR-Y304 (p1 mutation rate reporter strain) and GA-Y021 (p2 mutation rate reporter strain), encoding mKate2, URA3, and leu2* on either p1 or p2, respectively. Included in this panel were TP-DNAP1^WT and two error-prone TP-DNAP1 variants found in previous screens: TP-DNAP1^1777K, L900S and TP-DNAP1^L477V, L640Y, I777K, W814N. Also included were TP-DNAP2^WT and the error-prone TP-DNAP2^S370Q and TP-DNAP2^Y424Q variants found in this work. In AR-Y304 and GA-Y021, both p1 and p2 still encode their native wt TP-DNAP's. Any contribution to replication by a third TP-DNAP encoded in trans is monitored by detecting changes in linear plasmid mutation rate. Importantly, these experiments afford each DNAP an opportunity to replicate its native plasmid and lose its attached TP, becoming “spent” and perhaps more likely to replicate its noncognate linear plasmid through DNAP exchange (Klassen and Meinhardt, 2007, Linear Protein-Primed Replicating Plasmids in Eukaryotic Microbes, in Microbial Linear Plasmids, pp 1 87-226. Springer, Berlin, Heidelberg). The presence of TP-DNAP1^WT or TP-DNAP2^WT in trans had no effect on their noncognate linear plasmids' mutation rate. […] Likewise, p1 mutation rate was unaltered in the presence of mutagenic TP-DNAP2^S370Q and TP-DNAP2^Y424Q, which increased p2 mutation rate by 29- and 16-fold, respectively (FIG. 9). Thus, TP-DNAP1 replicates p1 with at least 870-fold specificity over p2, while TP-DNAP2 targets p2 with at least 29-fold specificity over p1. The level of mutual orthogonality measured here is limited by the error-rates of DNAPs used, especially that of TP-DNAP2 variants.
# [5] = system: p1-encoded leu2 (Q180*); experiment: Large-scale p1 fluctuation tests of p1-encoded leu2 (Q180*), per-base substitution rate; type: cell-based, S. cerevisiae; details: per-base substitution rate, p1-encoded leu2 (Q180*), large-scale fluctuation test
# In short: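 Per-base substitution rate = phenotypic mutation rate (maximum likelihood, per cell) divided by flow-cytometry p1 copy number and by 2.33 ways to revert the ochre codon. Revertants on leucine-free medium; replicates with likely pre-existing mutants dropped.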
# [6] = system: genomic URA3 gene; experiment: Fluctuation tests of the genomic URA3 gene in the presence of TP-DNAP1 variants; type: cell-based, S. cerevisiae; details: URA3 locus, strain harbouring p1 and the TP-DNAP1 variant
# Protocol: Fluctuation tests of the genomic URA3 gene were performed to determine genomic per-base substitution rates, as previously described (Ravikumar et al., 2014). Fluctuation data were analyzed by the maximum likelihood method, as described for large-scale p1 fluctuation tests. Phenotypic mutation rates were divided by the target size for loss of function of URA3 via base pair substitution (Lang et al., 2008), to yield per-base substitution rates. 95% confidence intervals were similarly scaled by these factors. All data related to genomic URA3 fluctuation tests are fully described in Table 5.
molecule,measurement,setting,value
CCc1nc(N)nc(N)c1-c1ccc(Cl)cc1 [pyrimethamine],solubility,[1],3000 µM
B1,Average leu2 (Q180*) copy number per cell,[2],22.5 and 38.6
same,change in p2 mutation rate by TP-DNAP1,[3],no statistically significant change
same,fold increase of p1 mutation rate,[4],380 fold
B2,Mutation rate (s.p.b.),[5],4.03 × 10^−6 s.p.b. and 2.74 × 10^−6 s.p.b.
same,Average leu2 (Q180*) copy number per cell,"[2]; L640Y, I777K",8.63 and 11.1
same,Yeast genomic substitution mutation rate,[6],2.17 × 10^−10 s.p.b.
B3,Average leu2 (Q180*) copy number per cell,[2],45.8 and 54.1

# — US20230242902A1, “A HIGHLY ERROR-PRONE […] R[…] FOR TARGETED CONTINUOUS EVOLUTION IN VIVO” (The Regents of the University of California, priority 2017, published 2023)
